Measurements reported in patent publication US20190016789A1 (Janssen / Centocor, published 2019).
One block for each binder: values may come before it.

Legend:
Tencon25 [1] = molecular target: T1, Tencon25; experiment: flow cytometry on CAR-electroporated primary T cells, labeled Tencon25
T1 construct: Artificial FN3 domain (centyrin scaffold) with no target specificity; It was the immunogen; also called Tencon-T25
T1 chain: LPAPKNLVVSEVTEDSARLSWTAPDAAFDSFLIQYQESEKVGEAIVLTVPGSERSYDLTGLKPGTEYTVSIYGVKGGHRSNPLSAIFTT

Tencon25 [2] = molecular target: T1, Tencon25; experiment: flow cytometry, CAR-electroporated T cells stained with 50 nM APC labeled Tencon-25
Protocol: For AS7B16 and AS7B82, binding was assessed using flow cytometry. Briefly, Twenty-four hours post-electroporation, cells were centrifuged at 100×g for 10 minutes and washed two times in FACS stain buffer (BD Biosciences Catalog#554657). Cells were incubated with either APC labeled […] or AF647 labeled anti-EGFR 83v2 FN3 domains at a final concentration of 50 nM at 4° C. for 1 hour. The labeled cells were washed twice in FACS stain buffer and re-suspended in 200 uL of the same buffer. Data was collected using a BD LSRFortessa flow cytometer and analysis was performed using Flowjo software. All CARTs tested, AS7B16, AS7B82 and AS7B91 bind to both FN3 domains tested, Tencon-T25 and EGFR 83v2. Binding of CARTs occurs in the following manner: ASS7B91>AS7B82>AS7B16.

Tencon25 [3] = molecular target: T1, Tencon25; experiment: ELISA, coated FN3 domain in dose-response, supernatant at 1 µg/ml, luminescence
Protocol: (§1) Three plates were coated with dose-response curves of, FN3 domain A3 specific for human cMET (SEQ ID NO: 31), 83v2-ABD specific for human EGFR with an albumin binding domain (SEQ ID NO: 32), tencon 25 that has no specificity (SEQ ID NO: 28), or negative control protein, all at 50 μL/well in 50 mM PBS. Plates were incubated over night at 4° C. Supernatants were dumped from plates and 200 μL/well Superblock was added to block plates for 1 hour at RT. […] Plates were incubated for 1 hour at RT. Plates were washed 3× with TBS-T. Secondary antibodies (HRP-goat anti-rabbit, rat or mouse) were prepared at 1:10,000 in Superblock and added to the plates. Plates were incubated for 1 hour at RT. Plates were washed 3× with TBS-T. 50 μL/well POD reagent (prepared according to Sigma-Aldrich manufacturer's instructions and incubated in the dark at RT for at least 30 minutes prior to use) was added to plates. After 3-5 minute incubation, protected from light, the M5 was used to read luminescence. The results were plotted in Prism (FIGS. 1A-C) using a Log/Log transformation, and then a four-parameter curve fit. […] It should be noted that there was no non-specific binding to negative control antibody. The mouse version of the antibody, AS7B91, appeared to have binding characteristics more similar to the original rabbit hybridoma antibody.

[4] = molecular target: T2, FN3 domain A3 specific for human cMET; experiment: as above
T2 construct: it carries a C-terminal His tag
T2 chain: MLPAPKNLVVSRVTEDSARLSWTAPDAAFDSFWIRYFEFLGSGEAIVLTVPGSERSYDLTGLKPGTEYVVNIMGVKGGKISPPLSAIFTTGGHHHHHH
Protocol: as §1

[5] = molecular target: T3, 83v2-ABD specific for human EGFR with an albumin binding domain; experiment: as above
T3 chain: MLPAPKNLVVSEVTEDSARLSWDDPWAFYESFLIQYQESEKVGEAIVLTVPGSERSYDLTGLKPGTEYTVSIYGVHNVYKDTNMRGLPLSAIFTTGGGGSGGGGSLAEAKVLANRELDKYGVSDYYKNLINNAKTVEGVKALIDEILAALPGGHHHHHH
Protocol: as §1

[6] = molecular target: anti-BCMA CARTyrins expressed on the surface of primary T cells; experiment: cell-based or functional assay

B1: AS7B91 scFv L-H CAR (scFv)
chain: DVVMTQTPASVSGPVGGTVTIKCQASERIYSNLAWYQQKPGQPPKLLIYKASTLASGVSSRFKGSGSGTEFTLTIRDLECADAATYSCQYTSYGSGYVGTFGGGTEVVVEGGGGGSGGGGSGGGGSGGGGSLEESGGRLVTPGTPLTLTCTVSGIDLSTSVMGWVRQAPGKGLESIGFIYTNVNTYYASWAKGRFTISRTSTTVDLKITSPTTGDTATYFCARAVYAGAMDLWGQGTLVTVSSTTTPAPRPPTPAPTIASQPLSLRPEACRPAAGGAVHTRGLDFACDIYIWAPLAGTCGVLLLSLVITLYCKRGRKKLLYIFKQPFMRPVQTTQEEDGCSCRFPEEEEGGCELRVKFSRSADAPAYKQGQNQLYNELNLGRREEYDVLDKRRGRDPEMGGKPRRKNPQEGLYNELQKDKMAEAYSEIGMKGERRRGKGHDGLYQGLSTATKDTYDALHMQALPPR
notes: Chimeric antigen receptor on mRNA-electroporated human pan T cells; also called BAR-T variant 1; AS7B91 L-H CAR ECD
binding result (Tencon25 [1]): binds

B2: AS7B16 scFv CAR, H-L orientation (scFv)
chain: QVTLKESGPGILQPSQTLSLTCSFSGFSLNTSGTGVGWIRQPSGKGLEWLAHIWWDDDKGYNPALKSRLTISKNTSSNLVFLKIASVDTADTATYYCVRIKGRMDYWGQGTSVTVSSGGGGSGGGGSGGGGSGGGGSNIMMTQSPSSLAVSAGEKVTMNCKSSQSVLFGSKQKNYLAWYQQKPGQSPKLLIYWASTRESGVPDRFTGSGSGTDFILTISNVQAEDLAVYYCHQYLSLFTFGSGTKLEIKTTTPAPRPPTPAPTIASQPLSLRPEACRPAAGGAVHTRGLDFACDIYIWAPLAGTCGVLLLSLVITLYCKRGRKKLLYIFKQPFMRPVQTTQEEDGCSCRFPEEEEGGCELRVKFSRSADAPAYKQGQNQLYNELNLGRREEYDVLDKRRGRDPEMGGKPRRKNPQEGLYNELQKDKMAEAYSEIGMKGERRRGKGHDGLYQGLSTATKDTYDALHMQALPPR
notes: Chimeric antigen receptor on mRNA-electroporated human pan T cells; also called AS7B16 H2L; AS7B16 H-L CAR ECD
binding result (Tencon25 [2]): binds

B3: AS7B16 scFv CAR, L-H orientation (scFv)
chain: NIMMTQSPSSLAVSAGEKVTMNCKSSQSVLFGSKQKNYLAWYQQKPGQSPKLLIYWASTRESGVPDRFTGSGSGTDFILTISNVQAEDLAVYYCHQYLSLFTFGSGTKLEIKGGGGSGGGGSGGGGSGGGGSQVTLKESGPGILQPSQTLSLTCSFSGFSLNTSGTGVGWIRQPSGKGLEWLAHIWWDDDKGYNPALKSRLTISKNTSSNLVFLKIASVDTADTATYYCVRIKGRMDYWGQGTSVTVSSTTTPAPRPPTPAPTIASQPLSLRPEACRPAAGGAVHTRGLDFACDIYIWAPLAGTCGVLLLSLVITLYCKRGRKKLLYIFKQPFMRPVQTTQEEDGCSCRFPEEEEGGCELRVKFSRSADAPAYKQGQNQLYNELNLGRREEYDVLDKRRGRDPEMGGKPRRKNPQEGLYNELQKDKMAEAYSEIGMKGERRRGKGHDGLYQGLSTATKDTYDALHMQALPPR
notes: Chimeric antigen receptor on mRNA-electroporated human pan T cells; also called AS7B16 L2H; AS7B16 L-H CAR ECD
binding result (Tencon25 [2]): binds

B4: AS7B90 (antibody, rat IgG1)
heavy: QSLEESGGRLVTPGTPLTLTCTVSGIDLSTSVMGWVRQAPGKGLESIGFIYTNVNTYYASWAKGRFTISRTSTTVDLKITSPTTGDTATYFCARAVYAGAMDLWGQGTLVTVSSAETTAPSVYPLAPGTALKSNSMVTLGCLVKGYFPEPVTVTWNSGALSSGVHTFPAVLQSGLYTLTSSVTVPSSTWPSQTVTCNVAHPASSTKVDKKIVPRNCGGDCKPCICTGSEVSSVFIFPPKPKDVLTITLTPKVTCVVVDISQDDPEVHFSWFVDDVEVHTAQTRPPEEQFNSTFRSVSELPILHQDWLNGRTFRCKVTSAAFPSPIEKTISKPEGRTQVPHVYTMSPTKEEMTQNEVSITCMVKGFYPPDIYVEWQMNGQPQENYKNTPPTMDTDGSYFLYSKLNVKKEKWQQGNTFTCSVLHEGLHNHHTEKSLSHSPGK
light: DVVMTQTPASVSGPVGGTVTIKCQASERIYSNLAWYQQKPGQPPKLLIYKASTLASGVSSRFKGSGSGTEFTLTIRDLECADAATYSCQYTSYGSGYVGTFGGGTEVVVEGRADAAPTVSIFPPSSEQLASGGASVVCFINKFYPKDISVKWKIDGSERQNDVLNSVTDQDSKDSTYSMSSTLTLTKADYERHNLYTCEVVHKTSASPVVKSFNRNEC
binding result (Tencon25 [3]): binds
binding result [4]: binds
binding result [5]: binds

More lines, now with the values ahead:

binding result (Tencon25 [1]): binds
B5: AS7B91 scFv H-L CAR (scFv)
chain: QSLEESGGRLVTPGTPLTLTCTVSGIDLSTSVMGWVRQAPGKGLESIGFIYTNVNTYYASWAKGRFTISRTSTTVDLKITSPTTGDTATYFCARAVYAGAMDLWGQGTLVTVSSGGGGSGGGGSGGGGSGGGGSDVVMTQTPASVSGPVGGTVTIKCQASERIYSNLAWYQQKPGQPPKLLIYKASTLASGVSSRFKGSGSGTEFTLTIRDLECADAATYSCQYTSYGSGYVGTFGGGTEVVVEGTTTPAPRPPTPAPTIASQPLSLRPEACRPAAGGAVHTRGLDFACDIYIWAPLAGTCGVLLLSLVITLYCKRGRKKLLYIFKQPFMRPVQTTQEEDGCSCRFPEEEEGGCELRVKFSRSADAPAYKQGQNQLYNELNLGRREEYDVLDKRRGRDPEMGGKPRRKNPQEGLYNELQKDKMAEAYSEIGMKGERRRGKGHDGLYQGLSTATKDTYDALHMQALPPR
notes: Chimeric antigen receptor on mRNA-electroporated human pan T cells; also called BAR-T variant 2; AS7B91 H-L CAR ECD

binding result (Tencon25 [3]): binds
binding result [4]: binds
binding result [5]: binds
increase in cell number compared to unstimulated cells [6]: 11 fold
B6: AS7B91 (antibody, mouse IgG2a, kappa)
heavy: QSLEESGGRLVTPGTPLTLTCTVSGIDLSTSVMGWVRQAPGKGLESIGFIYTNVNTYYASWAKGRFTISRTSTTVDLKITSPTTGDTATYFCARAVYAGAMDLWGQGTLVTVSSAKTTAPSVYPLAPVCGDTTGSSVTLGCLVKGYFPEPVTLTWNSGSLSSGVHTFPAVLQSDLYTLSSSVTVTSSTWPSQSITCNVAHPASSTKVDKKIEPRGPTIKPCPPCKCPAPNLLGGPSVFIFPPKIKDVLMISLSPIVTCVVVDVSEDDPDVQISWFVNNVEVHTAQTQTHREDYNSTLRVVSALPIQHQDWMSGKEFKCKVNNKDLPAPIERTISKPKGSVRAPQVYVLPPPEEEMTKKQVTLTCMVTDFMPEDIYVEWTNNGKTELNYKNTEPVLDSDGSYFMYSKLRVEKKNWVERNSYSCSVVHEGLHNHHTTKSFSRTPGK
light: DVVMTQTPASVSGPVGGTVTIKCQASERIYSNLAWYQQKPGQPPKLLIYKASTLASGVSSRFKGSGSGTEFTLTIRDLECADAATYSCQYTSYGSGYVGTFGGGTEVVVEGRADAAPTVSIFPPSSEQLTSGGASVVCFLNNFYPKDINVKWKIDGSERQNGVLNSWTDQDSKDSTYSMSSTLTLTKDEYERHNSYTCEATHKTSTSPIVKSFNRNEC
notes: also called a-Centyrin
